Substrate: C/C(=C\Cc1c(O)c(Cl)c(C)c(C=O)c1O)CC/C=C(\C)[C@@H](O)C[C@@H]1OC1(C)C
Experiment: cells, lysate or membranes
Conditions: microsomal fraction of ascI-expressing yeast

B1: AscI (Acremonium egyptiacum) (protein)
chain: MPQLAGKLILAGLIPLGAWVLHGFASCNGLIQMFEDFGKQTVLSDGVTDYTGAFTGLEGLDRLLRTLLNFFWPVANGHDWALSLHAFMFAGQGVPLLVLNMLEGARPGNKSLVVSYVTVFGILYMVVGLAIMAPLYLFLHLLTSRTATAPSKAKVAVDPNTAKAVGFGVFVGYVLPTIFMSLPHPSLLSTDTKVLSVVFWQAVPLWASVCAYFASTALGQSATSRSSSNLPSALGAVYAASLIIATATHVATFAISANLSDTWSGIFTFLIPPNPFNTDMRISSFLEGATWFLQWDYTMMSLAYMVWAIGIRHGVEVPRSSHHFETLGKIALRSMAKLLVMGPIGAALSLVWERDQLLWQLDSESGEKGEKNRSRRMSRKWMFS
With B1 as the protein, how does the Km read?
The Km was 50.4 ± 11.1 µM.
